In assay [1] the target is Y98F HA trimer from A/New Caledonia/20/1999 (H1 1999 NC), soluble trimeric format (influenza A virus A/New Caledonia/20/1999 (H1 1999 NC)). Nature of the assay: SEC; size exclusion on a Sepharose 10/300 column. (In gel filtration, larger molecules generally elute earlier.)
For assay [2], the target named is wildtype (WT) HA trimer from A/New Caledonia/20/1999 (H1 1999 NC), soluble trimeric format (influenza A virus A/New Caledonia/20/1999 (H1 1999 NC)) (UniProt Q6WG00). Nature of the assay: SEC; size exclusion on a Sepharose 10/300 column.

Here are results for two substances from paper PMC5087089.

As usually defined, the stoichiometry N is the number of molecules, sites or subunits per partner or assembly.

For the substance “Y98F HA trimer from A/New Caledonia/20/1999 (H1 1999 NC), soluble trimeric format (natural protein)”, the stoichiometry N in assay [1] worked out at 3.

The substance “wildtype (WT) HA trimer from A/New Caledonia/20/1999 (H1 1999 NC), soluble trimeric format (from UniProt Q6WG00 1-565) (natural protein)” returned a stoichiometry N in assay [2] of 3.
